According to PMC8247850, “The Peculiar Case of the Hyper‐thermostable Pyrimidine Nucleoside Phosphorylase from Thermus thermophilus” (Chembiochem, 2021):

B1: TtPyNP (Thermus thermophilus pyrimidine nucleoside phosphorylase) (Thermus thermophilus HB8) (protein)
chain: MNPVAFIREKREGKKHRREDLEAFLLGYLRDEVPDYQVSAWLMAAFLRGLDPEETLWLTETMARSGKVLDLSGLPHPVDKHSSGGVGDKVSLVVGPILAASGCTFAKMSGRGLAHTGGTIDKLESVPGWRGEMTEAEFLERARRVGLVIAAQSPDLAPLDGKLYALRDVTATVESVPLIASSIMSKKLAAGARSIVLDVKVGRGAFMKTLEEARLLAKTMVAIGQGAGRRVRALLTSMEAPLGRAVGNAIEVREAIEALKGEGPGDLLEVALALAEEALRLEGLDPALARKALEGGAALEKFRAFLEAQGGDPRAVEDFSLLPLAEEHPLRAEREGVVREVDAYKVGLAVLALGGGRKRKGEPIDHGVGVYLLKKPGDRVERGEALALVYHRRRGLEEALGHLREAYALGEEAHPAPLVLEAI
notes: tag not described in the main text

How the values were obtained:
[1] = biological target: T1, TtPyNP (Thermus thermophilus pyrimidine nucleoside phosphorylase) (Thermus thermophilus, UniProt Q5SHF9); details: co-substrate uridine
T1 construct: gene TTHA1771
T1 sequence (Q5SHF9 1-423): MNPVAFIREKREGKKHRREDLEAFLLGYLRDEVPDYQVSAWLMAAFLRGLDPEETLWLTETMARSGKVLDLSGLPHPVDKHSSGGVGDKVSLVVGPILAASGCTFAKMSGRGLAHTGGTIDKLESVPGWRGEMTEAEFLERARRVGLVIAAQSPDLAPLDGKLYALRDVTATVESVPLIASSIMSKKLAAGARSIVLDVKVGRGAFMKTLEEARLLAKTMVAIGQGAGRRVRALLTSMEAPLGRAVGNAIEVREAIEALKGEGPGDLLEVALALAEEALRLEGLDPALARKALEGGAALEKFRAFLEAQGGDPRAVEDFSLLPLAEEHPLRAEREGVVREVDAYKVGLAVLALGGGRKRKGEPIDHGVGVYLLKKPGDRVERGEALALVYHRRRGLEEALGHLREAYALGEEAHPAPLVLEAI

[2] = substrate: O=c1ccn([C@@H]2O[C@H](CO)[C@@H](O)[C@H]2O)c(=O)[nH]1; test: UV spectral unmixing of phosphorolysis initial rates; assay type: biochemical, Thermus thermophilus; details: 80 °C, pH 7, saturating phosphate, Michaelis-Menten-like only up to 1-2 mM, inhibition at higher concentration

| Molecule | K M [1] | Km [2] [mM] | kcat [2] [s⁻¹] |
| --- | --- | --- | --- |
| O=P(O)(O)O [phosphate] | saturating phosphate concentrations for which typical Michaelis–Menten behavior was observed; Figure S4 | – | – |
| B1 | – | 5.92 ± 8.72 | 624.89 ± 823.49 |
